The results in this text go back to patent US9611303B2, “Modified biotin-binding protein” (Japan Tobacco Inc., priority 2009, dated 2017).

The nature of series [1]: Purification of LATM2 with biotin-agarose. The class given is binding. As for the experimental part: Purification with biotin-agarose (manufactured by Sigma-Aldrich Corp.) was performed by the following procedure. After induced expression of 25 mL of a culture solution of E. coli for each LATM2, the E. coli cells were suspended in 1.5 mL of a 100 mM potassium phosphate buffer (pH 7.0), and then sonicated. To the supernatant of the disrupted cells. 400 μL of biotin-agarose was added, which was followed by upside-down mixing for 1 hr. […]
In TM2 S36A-T78A-D116A, the E. coli cells were suspended in 1.5 mL of 50 mM CAPS (pH 12) containing 50 mM NaCl, and then sonicated. To the disrupted cells, 400 μL of biotin-agarose was added, which was followed by upside-down mixing for 1 hr. The column was sufficiently washed with 50 mM CAPS (pH 12) containing 500 mM NaCl, and elution was then performed with 1 mL of PBS (pH 7.4) containing 10 mM biotin.
In TM2 S36A-D116A, the E. coli cells were suspended in 1.5 mL of a 100 mM potassium phosphate buffer (pH 4.0), and then sonicated. To the pupernatant of the disrupted cells, 400 μL of biotin-agarose was added. Washing was performed with a 100 mM potassium phosphate buffer (pH 4) containing 500 mM NaCl, and elution was performed with 1 mL of PBS (pH 7) containing 10 mM biotin. Biotin binding to LATM2 that has been eluted with an excess amount of biotin was removed by dialysis with a 20 mM potassium phosphate buffer overnight.
(§1) The recovery rate in Table 2 was calculated by dividing the amount of LATM2 protein after purification by the amount of LATM2 protein before purification and was expressed by percent by multiplying the quotient by 100. The degree of purification was the ratio of the amount of LATM2 protein to the total amount of proteins in the purified fraction and was expressed by percent by multiplying the ratio by 100. The recovery rates and the degrees of purification in biotin-agarose were the results after binding at pH 7 and elution with an excess amount of biotin.

The test system of a further series is Proteinase K. As to the kind of experiment: Protease resistance of LATM2 (SDS-PAGE). The settings on record: 5 μM Proteinase K, 30° C., 15 min, presence or absence of biotin. The method, then: Throughout the specification, “having protease resistance” refers to that a protein is not enzymatically decomposed or not substantially decomposed by protease treatment. The protease treatment is performed by, for example, proteinase K treatment at 30° C. for 15 min. The term “not enzymatically decomposed” refers to that bands of a tetramer, dimer, and/or monomer of the protein can be clearly detected by SDS-PAGE after enzyme treatment, as in wild-type TM2. That is, a protein not having protease resistance is decomposed into small molecules by protease treatment, and bands of the tetramer, dimer, and monomer are not detected by SDS-PAGE after the protease treatment. […] Accordingly, bands of the tetramer and/or the dimer or monomer generated by dissociation of the tetramer are detected by SDS-PAGE. […] of each of the LATM2s (TM2 S36A, TM2 […], TM2 […], TM2 […], TM2 […], TM2 S36A-[…], TM2 […], and […]) purified by biotin-agarose was subjected to a reaction in 50 mM Tris-HCl (pH 8.0) containing 5 μM Proteinase K and 5 mM CaCl2 at 30° C. for 15 min. […] Then, an SDS buffer was added to each reaction solution, followed by heat treatment at 95° C. for 10 min to terminate the reaction. The resulting sample was subjected to SDS-PAGE, followed by CBB staining.

Series [2] can be described thus: Heat resistance of LATM2 by SDS-PAGE. The class given is physicochemical. The settings on record: absence of biotin, 20 min in SDS sample buffer. As for the experimental part:
The heat resistance of LATM2s was investigated by SDS-PAGE. Each protein was heat treated at predetermined temperatures for 20 min in an SDS sample buffer in the presence or absence of biotin and was then subjected to SDS-PAGE, followed by CBB staining. The heating temperatures in a biotin-free experimental system were 80° C., 82° C., 84° C., 86° C., 88° C., 90° C., 92° C., and 94° C., and heating temperatures in a biotin-containing experimental system were 86° C., 88° C., 90° C., 92° C., 96° C., 98° C., and 100° C.

The nature of series [3]: Subunit association by FPLC on Sephacryl S-100HR. The class given is physicochemical. To be noted: for Structure (identified by FPLC): Sephacryl S-100HR, 50 mM potassium phosphate, 500 mM NaCl; for Sephacryl (mL), elution peak position: tetramer 44 to 47 mL, dimer 51 to 54 mL, monomer 63 to 66 mL. The method, then: In order to analyze the subunit association conditions of LATM2, the molecular weight of each LATM2s was measured by FPLC. Sephacryl S-100HR (manufactured by GE Healthcare) was used as a column, a Gel Filtration Calibration Kit LMW (manufactured by GE Healthcare) was used as molecular weight markers, and 50 mM potassium phosphate containing 500 mM NaCl was used as a buffer.
The positions of the peaks of eluted tetramer were defined to be 44 to 47 mL after injection of WT-TM2 as a control. The peak of an eluted monomer appeared at around 63 to 66 mL and the peak of an eluted dimer appeared at around 51 to 54 mL, from result of loading the molecular weight markers.

Series [4] in a line: Purification of LATM2 with 2-iminobiotin-agarose. It counts as binding. The settings on record: for Recovery rate (%): Iminobiotin-agarose, binding at pH 12, elution with 50 mM NH4OAC (pH 4). As for the experimental part:
LATM2 was purified through a column charged with 2-iminobiotin-agarose (manufactured by Sigma-Aldrich Corp.) in accordance with the method by Hofmann, et al., (1980). IPTG was added to 25 mL of a culture solution of E. coli transformed with each LATM2 in a final concentration of 1 mM to induce expression. The E. coli cells were collected by centrifugation, suspended in 1.5 mL of 50 mM CAPS (pH 12) containing 50 mM NaCl, and then sonicated. To the supernatant of the disrupted cells, 500 μL of 2-iminobiotin-agarose was added, which was then packed in a column. The column was sufficiently washed with 50 mM CAPS (pH 12) containing 500 mM NaCl, and elution was then performed with 50 mM NH4OAC (pH 4).
as §1

A short description of series [5]: Biotin-binding ability of TM2 D40N.
Series [6] is described as follows: pH-dependence of binding to biotin-agarose. As for the experimental part:
E. coli cells were collected from 25 mL of an E. coli culture solution in which expression TM2 S36A-D116A was induced with 1 mM IPTG, were suspended in 1.5 mL of a 100 mM potassium phosphate buffer ([…]) or 1.5 mL of a 50 mM CAPS (pH 12.0), and then were sonicated. The disrupted cells were centrifugated, and 400 μL of biotin-agarose was added to the supernatant. […] Furthermore, the TM2 S36A-D116A protein was dissociated from the carrier by increasing the pH of the reaction solution to 7.0 or 12.0 and was recovered at an efficiency of 95%.
TM2 S36A-T78A-D116A was also investigated for its pH-dependence. The protein was suspended in a buffer of pH 4.0 or pH 12.0 and was sonicated. […] By utilizing this property, high purity TM2 S36A-T78A-D116A was obtained by binding the protein to biotin-agarose at pH 4.0 and eluting it at pH 7.0 (FIG. 3B).

Setting [7] is: Biotin-agarose, binding at pH 7, recovery with 10 mM biotin.

B1: TM2 T78A: TM2 in which the 78th threonine was replaced with alanine; SEQ ID NO: 10 (protein)
chain: MSDVQSSLTGTWYNELNSKMELTANKDGTLTGKYLSKVGDVYVPYPLSGRYNLQPPAGQGVALGWAVSWENSKIHSAATWSGQFFSESSPVILTQWLLSSSTARGDVWESTLVGNDSFTKTAPTEQQIAHAQLHCRAPRLK
modifications: Synthetic TM2 T78A
B1: the “Recover rate (%)” value in series [1] (setting [7]) is given as “about 95%”; in series [1] (Biotin-agarose, binding at pH 7, recovery with 10 mM biotin, listed as T78A), 95%. Moreover, the “decomposition by Proteinase K” value with Proteinase K is “hardly decomposed”. Moreover, in series [2], the “Tr value (temperature at which ratio monomer:tetramer becomes 1:1)” value was determined as 88 °C. Besides, the “Structure (identified by FPLC)” value in series [3] was “tetramer”; in series [3] (listed as T78A) it was “Tetramer”. Also, the “Sephacryl (mL), elution peak position” value in series [3] was determined as 45.71 mL. Also, the “Recovery rate (%)” value in series [4] was determined as 10%. The “recovery rates compared with WT” value in series [4] (purification with 2-iminobiotin-agarose) was “inferior to WT”.

B2: TM2 D40N: TM2 having modification of the 40th aspartic acid to asparagine (protein)
chain: MSDVQSSLTGTWYNELNSKMELTANKDGTLTGKYLSKVGNVYVPYPLSGRYNLQPPAGQGVALGWAVSWENSKIHSATTWSGQFFSESSPVILTQWLLSSSTARGDVWESTLVGNDSFTKTAPTEQQIAHAQLHCRAPRLK
B2: in series [5], the “biotin-binding ability relative to TM2” value is “increases”.

B3: TM2 S36A-T78A-D116A: TM2 with 36th serine, 78th threonine and 116th aspartic acid replaced with alanine; SEQ ID NO: 8 (protein)
chain: MSDVQSSLTGTWYNELNSKMELTANKDGTLTGKYLAKVGDVYVPYPLSGRYNLQPPAGQGVALGWAVSWENSKIHSAATWSGQFFSESSPVILTQWLLSSSTARGDVWESTLVGNASFTKTAPTEQQIAHAQLHCRAPRLK
modifications: Synthetic TM2 S36A-T78A-D116A
In the case of B3, in series [1] (Biotin-agarose), the “recovery rate by binding at pH 4 or 12, elution at pH 7 (without biotin)” value is “recovery rate: 95%”. The “Recover rate (%)” value in series [1] (setting [7]) stood at 0%. The “decomposition by Proteinase K” value in the series with Proteinase K is recorded as “hardly decomposed”. Further, in series [3], the “Structure (identified by FPLC)” value was “dimer” and the “Sephacryl (mL), elution peak position” value amounted to 51.06 mL. The “Structure (identified by FPLC)” value in series [3] (listed as S36AT78AD116A) is “Dimer”. In addition, the binding to biotin-agarose entry in series [6] (pH 4.0 or pH 12.0) is recorded as “confirm its binding to biotin-agarose”. Further, the binding to biotin-agarose result in series [6] (pH 7.0) is given as “did not bind to biotin-agarose at all”. For the same molecule, in series [4], the “binding to 2-iminobiotin-agarose” value is recorded as “did not bind” and the “Recovery rate (%)” value is 0%.

B4: TM2 S36A-D116A: TM2 with 36th serine and 116th aspartic acid replaced with alanine; SEQ ID NO: 20 (protein)
chain: MSDVQSSLTGTWYNELNSKMELTANKDGTLTGKYLAKVGDVYVPYPLSGRYNLQPPAGQGVALGWAVSWENSKIHSATTWSGQFFSESSPVILTQWLLSSSTARGDVWESTLVGNASFTKTAPTEQQIAHAQLHCRAPRLK
modifications: Synthetic TM2 S36A-D116A
Turning to B4, the “recovery rate by binding at pH 4, elution at pH 7 (without biotin)” value in series [1] (Biotin-agarose) is listed as 95%. Besides, the “Recover rate (%)” value in series [1] (setting [7]) came to 0%. Besides, the “recovery rate by binding at pH 4, elution at pH 7 (without biotin)” value in series [1] (Biotin-agarose, listed as S36AD116A) is “recovery rate: 95%”. The “decomposition by Proteinase K” value in the series on Proteinase K is given as “approximate a half thereof was decomposed”. Further, in series [3], the “Structure (identified by FPLC)” value was “Tetramer” and the “Sephacryl (mL), elution peak position” value is listed as 46.31 mL. For the same molecule, in series [6] (extract at pH 4.0, pH 5.0, or pH 6.0), the binding to biotin-agarose entry was “efficiently bound to biotin-agarose”. For the same molecule, in series [6] (extract at pH 7.0 or pH 12.0), the binding to biotin-agarose entry is reported as “did not bind to biotin-agarose at all”. Moreover, in series [6] (increasing the pH to 7.0 or 12.0), the “recovery efficiency on dissociation from the carrier” value is listed as 95%. Moreover, in series [4], the “binding to 2-iminobiotin-agarose” value is reported as “did not bind” and the “Recovery rate (%)” value is reported as 0%.

B5: WT-TM2: wild-type tamavidin 2, protein comprising the amino acid sequence SEQ ID NO: 2, from Pleurotus cornucopiae (protein, listed as Pleurotus cornucopiae)
chain: MSDVQSSLTGTWYNELNSKMELTANKDGTLTGKYLSKVGDVYVPYPLSGRYNLQPPAGQGVALGWAVSWENSKIHSATTWSGQFFSESSPVILTQWLLSSSTARGDVWESTLVGNDSFTKTAPTEQQIAHAQLHCRAPRLK
Take B5: in series [1], the binding to biotin-agarose result was “efficiently adsorbs to biotin-agarose” and the “elution from biotin-agarose with an excess amount of biotin” value is given as “not eluted”. The “Recover rate (%)” value in series [1] (setting [7]) was 0%. Also, the “Note (Biotin-agarose)” value in series [1] (binding at pH 7, recovery with 10 mM biotin, FT = flow-through) is “not eluted”. Moreover, in the series with Proteinase K, the “decomposition by Proteinase K” value is “hardly decomposed”. Besides, the “Tr value (temperature at which ratio monomer:tetramer becomes 1:1)” value in series [2] was determined as 78 °C. Moreover, in series [3], the “Structure (identified by FPLC)” value is given as “Tetramer” and the “Sephacryl (mL), elution peak position” value stood at 46.23 mL. The “Recovery rate (%)” value in series [4] turned out to be 95%.
